Test results reported in PMC7144924 (Nucleic Acids Research, 2020).

Target: T1, GST-tagged R289A mutant Rrp9 (S. cerevisiae, UniProt Q06506 1-573, R289A)
T1 sequence (looked up): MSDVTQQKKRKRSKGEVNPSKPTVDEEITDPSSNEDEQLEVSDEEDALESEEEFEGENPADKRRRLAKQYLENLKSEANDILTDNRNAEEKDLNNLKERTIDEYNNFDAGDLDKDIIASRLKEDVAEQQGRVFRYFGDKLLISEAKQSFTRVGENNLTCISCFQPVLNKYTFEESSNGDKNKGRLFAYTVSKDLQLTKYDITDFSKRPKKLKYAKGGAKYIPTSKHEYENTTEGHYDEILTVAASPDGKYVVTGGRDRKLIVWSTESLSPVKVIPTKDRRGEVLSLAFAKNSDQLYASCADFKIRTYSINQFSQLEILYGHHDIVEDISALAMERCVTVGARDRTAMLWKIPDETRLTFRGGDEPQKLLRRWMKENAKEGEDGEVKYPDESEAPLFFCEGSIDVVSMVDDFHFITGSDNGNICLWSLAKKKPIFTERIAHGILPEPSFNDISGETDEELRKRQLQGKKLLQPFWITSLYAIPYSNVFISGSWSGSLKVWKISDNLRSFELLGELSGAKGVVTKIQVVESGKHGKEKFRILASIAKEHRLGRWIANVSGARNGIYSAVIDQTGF
Assay: pull-down

B1: [35S]-methionine-labeled Rrp36, in vitro translated (natural protein, S. cerevisiae, UniProt Q12481 1-300, looked up)
chain: MSYYFKNLKPDLNSDVEEDDGNLLESIMANKSKREIDEQESSDDELKTLSFGSLKKAETVIDEEDFKDTKPVHKKPITTTYREESFDEDEDSEDQSDEDAGFFEEDSEDETHHGQKVPKKKSKHAPVEQSSKKRVPRVRNIPGLEIPRNKRSNLYQDIRFDKSTGKALDSSIIRKRYQFLDEYREKEIDELQKLLQERKFLSKIDQGEREEMEQRLKSMKSRLQSMKNKDLEREILKEYENDMNKNNNTRYHLKKSEKRKVVQKWKFDHMKAKQREKVMERKRKKRLGKEFKQFEFHNRR
modifications: [35S]-methionine-labeled
reduction of recovery relative to WT Rrp9: 20%
